Test results reported in patent US12351610B2, “Interferon regulatory factor 5 inhibitors and uses thereof” (THE FEINSTEIN INSTITUTES FOR MEDICAL RESEARCH, priority 2019, dated 2025).
“Also recorded” adds a separate entry of the source.

What was measured:
[1] = system: IRF5 nuclear translocation in monocytes (Mo) of PBMC from healthy donors; experiment: R848-induced IRF5 nuclear translocation in PBMC monocytes (CD14+), imaging flow cytometry; format: cell-based, human; conditions: 10 μM peptide pre-incubation 1 h, then 500 ng/mL R848 for 2 h
Procedure: (§1) Imaging Flow Cytometry. Imaging flow was performed as previously described on the Amnis Imagestream (19). Briefly, PBMCs from healthy donors were isolated and treated with inhibitor for 1 h, subsequently stimulated with R848 (500 ng/mL) or 2% SLE serum for 2 h, followed by staining for CD19 and CD14. PBMC were then fixed overnight in 1% paraformaldehyde and then permeabilized (19). Permeabilized cells were blocked in 5% BSA solution and stained for intracellular IRF5 (Abcam Catalog #: ab193245) or phospho(pSer462)IRF5 and FITC-conjugated secondary antibody (Abcam Catalog #: ab6896). Prior to acquisition, DRAQS dye was added at a 1:50 dilution. PBMC from SLE patients were only surface-stained and permeabilzed for intracellular IRF5 and DRAQS staining. Murine PBMC were stained similarly for intracellular IRF5 (Abcam Catolog #: 181553) (58) and APC-conjugated secondary antibody (BioLegend). Images were acquired on the ImageStream using the 40× objective. Nuclear translocation was quantified in the Amnis IDEAS software suite. Briefly, cells were first filtered through the brightfield area vs. brightfield aspect ratio gate to exclude non-viable and doublet events. Following which a similar gate of the DRAQS nuclear channel was used. This added an extra measure of stringency for cell viability. Images were gated on either CD14^+IRF5^+, CD19^+IRF5^+, or CD123^+BDCA2^+IRF5^+ events, followed by gating on images with a Gradient RMS of greater than 20 on the DRAQS channel. This was done to select images with a high level of clarity. Finally, IRF5 nuclear translocation was determined through use of the similarity score feature contrasting IRF5 staining with DRAQS staining. A similarity score≥2 was considered a translocation event.
Peptide mimetics inhibit TLR7-induced IRF5 nuclear translocation. We next sought to determine whether in vitro binding data would translate into IRF5 cellular inhibition. IRF5 is a key downstream mediator of TLR7-induced cytokine expression and TLR7 signaling has been implicated in SLE pathogenesis (2,44-47). We examined the ability of IRF5 peptide mimetics to inhibit IRF5 nuclear translocation following stimulation of PBMC with R848. […] For the initial screening, isolated PBMC from healthy donors were pre-incubated in the presence of mock (PBS), or 10 μM CPP1 (SEQ ID NO:4), N5-1 (SEQ ID NO:20), N5-2 (SEQ ID NO:17), N5-3 (SEQ ID NO:18) or C5-2 (SEQ ID NO:22) inhibitor for 1 h followed by stimulation with 500 ng/mL of R848 for 2 h. Cells were surface-stained with anti-CD14 (monocytes or Mo) and anti-CD19 (B cells) antibodies, then permeabilized and stained for intracellular IRF5 and DRAQ5. As expected, R848 induced significant IRF5 nuclear translocation in mock-incubated Mo (2) and B cells.

[2] = system: IRF5 nuclear translocation in B cells of PBMC from healthy donors; experiment: R848-induced IRF5 nuclear translocation in PBMC B cells (CD19+), imaging flow cytometry; format: cell-based, human; conditions: 10 μM peptide pre-incubation 1 h, then 500 ng/mL R848 for 2 h
Procedure: as §1, with “This added an extra measure of stringency for cell viability. Images were gated on either CD14^+IRF5^+, CD19^+IRF5^+, or CD123^+BDCA2^+IRF5^+ events, followed by gating on images with a Gradient RMS of greater than 20 on the DRAQS channel. This was done to select images with a high level of clarity.” left out, “A similarity score≥2 was considered a translocation event.” left out

[3] = biological target: T1, human full-length recombinant IRF5 variant 5 (isoform V5) (Homo sapiens, UniProt Q13568); experiment: Surface plasmon resonance (SPR) binding of peptides to immobilized full-length recombinant IRF5; conditions: peptides 1 μM, IRF5 immobilized on chip, 25° C.
T1 construct: Full-length recombinant IRF5 protein (ab173024, Abcam) was immobilized onto a CMS series chip; purchased Abcam ab173024
T1 sequence (Q13568 1-514 isoform Q13568-2): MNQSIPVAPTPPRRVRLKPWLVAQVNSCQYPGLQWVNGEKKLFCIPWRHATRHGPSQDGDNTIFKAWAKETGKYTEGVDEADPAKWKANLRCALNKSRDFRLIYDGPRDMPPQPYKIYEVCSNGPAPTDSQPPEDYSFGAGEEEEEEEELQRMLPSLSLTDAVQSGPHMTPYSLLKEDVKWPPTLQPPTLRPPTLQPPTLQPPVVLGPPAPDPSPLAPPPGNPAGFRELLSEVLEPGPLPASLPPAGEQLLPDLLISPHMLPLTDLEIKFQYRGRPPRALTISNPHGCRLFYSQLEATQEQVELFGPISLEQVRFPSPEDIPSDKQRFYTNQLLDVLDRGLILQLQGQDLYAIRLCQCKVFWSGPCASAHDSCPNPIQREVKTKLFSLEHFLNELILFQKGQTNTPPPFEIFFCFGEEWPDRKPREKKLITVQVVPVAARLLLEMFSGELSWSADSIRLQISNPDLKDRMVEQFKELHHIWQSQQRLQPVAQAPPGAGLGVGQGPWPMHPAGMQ
Procedure: Surface Plasmon Resonance (SPR) Analysis. The Biacore T200 (GE Healthcare, UK) was used for real-time binding interaction studies. Full-length recombinant IRF5 protein (ab173024, Abcam) was immobilized onto a CMS series chip (GE Healthcare) by diluting to a concentration of 20 μg/mL in 10 mM acetate buffer (pH=5.0). A 1:1 mixture of N-hyrdoxysuccinimide and N-ethyl-N-(dimethyaminopropyl)carbodiimide was used to activate 2 flow-cells of the CMS chip. […] The sample flow-cell was injected with the diluted IRF5 at a flow rate of 10 μL/min by manual injection. The IRF5 injection was stopped when the SPR reached ˜490 RU. For binding of peptides to IRF5, the analytes (peptides) were diluted to 1 μM in 1×PBS+0.05% Tween20 buffer, filtered (0.22 μm) and injected over the IRF5 immobilized chip at a flow rate of 30 μL/min for 60 s at 25° C. with a dissociation time set for 1 min. Binding experiments were conducted in 1×PBS+0.05% Tween20 as the running buffer; at least 3 independent experiments were performed.
Peptides (1 μM) were tested for their ability to directly interact with human full-length recombinant IRF5 variant 5 (isoform V5) by surface plasmon resonance (SPR) analysis. DWEYS (SEQ ID NO:23) peptide served as a non-targeted control and CPP1 (SEQ ID NO:4) as a control for the cell permeable sequence. […] A shared similarity between N5-1 (SEQ ID NO:20) and N5-2 (SEQ ID NO:17) is their relatively stronger positive charge, as compared to the others (Table 1).
Human IRF5 contains two nuclear localization signals (NLS), one in the N-terminus and one in the C-terminus (27). N5-1 (SEQ ID NO:20) corresponds to the N-terminal NLS (PRRVRLK) (SEQ ID NO:24). To test whether any NLS is capable of binding to IRF5, we generated C5-2 (SEQ ID NO:22) that corresponds to the C-terminal NLS of IRF5 (PREKKLI) (SEQ ID NO:25) and examined binding by SPR.

Substance | effect on R848-induced IRF5 nuclear translocation in Mo [1] | effect on R848-induced IRF5 nuclear translocation in B cells [2] | binding affinity for IRF5 [3]
DRQIKIWFQNRRMKWKK (listed as Drosophila antennapedia) [CPP1, reference compound] | no significant effect | no significant effect | minimal binding affinity
DRQIKIWFQNRRMKWKKEGVDEAD (cell penetrating and targeting sequence) [Peptide N5-5] |  |  | no affinity for IRF5
DRQIKIWFQNRRMKWKKGPRDMPP (cell penetrating and targeting sequence) [Peptide N5-4] |  |  | N5-3 (SEQ ID NO:18)>N5-4 (SEQ ID NO:19)>CPP1 (SEQ ID NO:4)
DRQIKIWFQNRRMKWKKKSRDFRL (cell penetrating and targeting sequence) [Peptide N5-3] | significant reduction |  | binding to a slightly lesser extent; also recorded: directly bind to the full-length inactive IRF5 monomer
DRQIKIWFQNRRMKWKKPRRVRLK (cell penetrating and targeting sequence) [Peptide N5-1] | significant reduction |  | strongest binding affinity for IRF5; also recorded: directly bind to the full-length inactive IRF5 monomer
DRQIKIWFQNRRMKWKKRHATRHG (cell penetrating and targeting sequence) [Peptide N5-2] | significant reduction |  | strongest binding affinity for IRF5; also recorded: directly bind to the full-length inactive IRF5 monomer
DWEYS (listed as Homo sapiens) [peptide that served as a non-targeted control, reference compound] |  |  | no affinity for IRF5
